B1: SEQ ID NO 7: Chromobacterium violaceum ω-transaminase, Genbank Accession No. AAQ59697.1, N-terminal HIS tagged (protein, listed as Chromobacterium violaceum)
chain: MQKQRTTSQWRELDAAHHLHPFTDTASLNQAGARVMTRGEGVYLWDSEGNKIIDGMAGLWCVNVGYGRKDFAEAARRQMEELPFYNTFFKTTHPAVVELSSLLAEVTPAGFDRVFYTNSGSESVDTMIRMVRRYWDVQGKPEKKTLIGRWNGYHGSTIGGASLGGMKYMHEQGDLPIPGMAHIEQPWWYKHGKDMTPDEFGVVAARWLEEKILEIGADKVAAFVGEPIQGAGGVIVPPATYWPEIERICRKYDVLLVADEVICGFGRTGEWFGHQHFGFQPDLFTAAKGLSSGYLPIGAVFVGKRVAEGLIAGGDFNHGFTYSGHPVCAAVAHANVAALRDEGIVQRVKDDIGPYMQKRWRETFSRFEHVDDVRGVGMVQAFTLVKNKAKRELFPDFGEIGTLCRDIFFRNNLIMRACGDHIVSAPPLVMTRAEVDEMLAVAERCLEEFEQTLKARGLA
modifications: N-terminal His tag
B2: SEQ ID NO 9: Pseudomonas syringae ω-transaminase, Genbank Accession No. AAY39893.1, N-terminal HIS tagged (protein, listed as Pseudomonas syringae)
chain: MSANNPQTLEWQALSSEHHLAPFSDYKQLKEKGPRIITRAEGVYLWDSEGNKILDGMSGLWCVAIGYGREELADAASKQMRELPYYNLFFQTAHPPVLELAKAISDIAPEGMNHVFFTGSGSEGNDTMLRMVRHYWALKGQPNKKTIISRVNGYHGSTVAGASLGGMTYMHEQGDLPIPGVVHIPQPYWFGEGGDMTPDEFGIWAAEQLEKKILELGVENVGAFIAEPIQGAGGVIVPPDSYWPKIKEILSRYDILFAADEVICGFGRTSEWFGSDFYGLRPDMMTIAKGLTSGYVPMGGLIVRDEIVAVLNEGGDFNHGFTYSGHPVAAAVALENIRILREEKIVERVRSETAPYLQKRLRELSDHPLVGEVRGVGLLGAIELVKDKTTRERYTDKGAGMICRTFCFDNGLIMRAVGDTMIIAPPLVISFAQIDELVEKARTCLDLTLAVLQG
modifications: N-terminal His tag
B3: SEQ ID NO 12: Vibrio fluvialis ω-transaminase, Genbank Accession No. AEA39183.1, N-terminal HIS tagged (protein, listed as Vibrio fluvialis)
chain: MNKPQSWEARAETYSLYGFTDMPSLHQRGTVVVTHGEGPYIVDVNGRRYLDANSGLWNMVAGFDHKGLIDAAKAQYERFPGYHAFFGRMSDQTVMLSEKLVEVSPFDSGRVFYTNSGSEANDTMVKMLWFLHAAEGKPQKRKILTRWNAYHGVTAVSASMTGKPYNSVFGLPLPGFVHLTCPHYWRYGEEGETEEQFVARLARELEETIQREGADTIAGFFAEPVMGAGGVIPPAKGYFQAILPILRKYDIPVISDEVICGFGRTGNTWGCVTYDFTPDAIISSKNLTAGFFPMGAVILGPELSKRLETAIEAIEEFPHGFTASGHPVGCAIALKAIDVVMNEGLAENVRRLAPRFEERLKHIAERPNIGEYRGIGFMWALEAVKDKASKTPFDGNLSVSERIANTCTDLGLICRPLGQSVVLCPPFILTEAQMDEMFDKLEKALDKVFAEVA
modifications: N-terminal His tag
B4: SEQ ID NO 8: Pseudomonas aeruginosa ω-transaminase, Genbank Accession No. AAG08191.1, N-terminal HIS tagged (protein, listed as Pseudomonas aeruginosa)
chain: MNARLHATSPLGDADLVRADQAHYMHGYHVFDDHRVNGSLNIAAGDGAYIYDTAGNRYLDAVGGMWCTNIGLGREEMARTVAEQTRLLAYSNPFCDMANPRAIELCRKLAELAPGDLDHVFLTTGGSTAVDTAIRLMHYYQNCRGKRAKKHVITRINAYHGSTFLGMSLGGKSADRPAEFDFLDERIHHLACPYYYRAPEGLGEAEFLDGLVDEFERKILELGADRVGAFISEPVFGSGGVIVPPAGYHRRMWELCQRYDVLYISDEVVTSFGRLGHFFASQAVFGVQPDIILTAKGLTSGYQPLGACIFSRRIWEVIAEPDKGRCFSHGFTYSGHPVACAAALKNIEIIEREGLLAHADEVGRYFEERLQSLRDLPIVGDVRGMRFMACVEFVADKASKALFPESLNIGEWVHLRAQKRGLLVRPIVHLNVMSPPLILTREQVDTVVRVLRESIEETVEDLVRAGHR
modifications: N-terminal His tag
B5: SEQ ID NO 6: Segniliparus rotundus carboxylate reductase, Genbank Accession No. ADG98140.1, N-terminal HIS tagged (protein, listed as Segniliparus rotundus)
chain: MTQSHTQGPQASAAHSRLARRAAELLATDPQAAATLPDPEVVRQATRPGLRLAERVDAILSGYADRPALGQRSFQTVKDPITGRSSVELLPTFDTITYRELRERATAIASDLAHHPQAPAKPGDFLASIGFISVDYVAIDIAGVFAGLTAVPLQTGATLATLTAITAETAPTLFAASIEHLPTAVDAVLATPSVRRLLVFDYRAGSDEDREAVEAAKRKIADAGSSVLVDVLDEVIARGKSAPKAPLPPATDAGDDSLSLLIYTSGSTGTPKGAMYPERNVAHFWGGVWAAAFDEDAAPPVPAINITFLPLSHVASRLSLMPTLARGGLMHFVAKSDLSTLFEDLKLARPTNLFLVPRVVEMLYQHYQSELDRRGVQDGTREAEAVKDDLRTGLLGGRILTAGFGSAPLSAELAGFIESLLQIHLVDGYGSTEAGPVWRDGYLVKPPVTDYKLIDVPELGYFSTDSPHPRGELAIKTQTILPGYYKRPETTAEVFDEDGFYLTGDVVAQIGPEQFAYVDRRKNVLKLSQGEFVTLAKLEAAYSSSPLVRQLFVYGSSERSYLLAVIVPTPDALKKFGVGEAAKAALGESLQKIARDEGLQSYEVPRDFIIETDPFTVENGLLSDARKSLRPKLKEHYGERLEAMYKELADGQANELRDIRRGVQQRPTLETVRRAAAAMLGASAAEIKPDAHFTDLGGDSLSALTFSNFLHDLFEVDVPVGVIVSAANTLGSVAEHIDAQLAGGRARPTFATVHGKGSTTIKASDLTLDKFIDEQTLEAAKHLPKPADPPRTVLLTGANGWLGRFLALEWLERLAPAGGKLITIVRGKDAAQAKARLDAAYESGDPKLAGHYQDLAATTLEVLAGDFSEPRLGLDEATWNRLADEVDFISHPGALVNHVLPYNQLFGPNVAGVAEIIKLAITTRIKPVTYLSTVAVAAGVEPSALDEDGDIRTVSAERSVDEGYANGYGNSKWGGEVLLREAHDRTGLPVRVFRSDMILAHQKYTGQVNATDQFTRLVQSLLATGLAPKSFYELDAQGNRQRAHYDGIPVDFTAESITTLGGDGLEGYRSYNVFNPHRDGVGLDEFVDWLIEAGHPITRIDDYDQWLSRFETSLRGLPESKRQASVLPLLHAFARPGPAVDGSPFRNTVFRTDVQKAKIGAEHDIPHLGKALVLKYADDIKQLGLL
modifications: N-terminal His tag

A short description of the first series: ω-transaminase enzyme activity assay, reverse direction (6-aminohexanoate to adipate semialdehyde). Format: biochemical. To be noted: cell free extract, 10 mM 6-aminohexanoate, 10 mM pyruvate, pH 7.5, 25° C., 24 h, RP-HPLC, against the empty vector control. As to the method: (§1) A nucleotide sequence encoding a His-tag was added to the nucleic acid sequences from Chromobacterium violaceum, Pseudomonas aeruginosa, Pseudomonas syringae, Rhodobacter sphaeroides, and Vibrio fluvialis encoding the ω-transaminases of SEQ ID NOs: 7, 8, 9, 10 and 12, respectively (see FIG. 6) such that N-terminal HIS tagged ω-transaminases could be produced. Each of the resulting modified genes was cloned into a pET21a expression vector under control of the T7 promoter and each expression vector was transformed into a BL21[DE3] E. coli host. The resulting recombinant E. coli strains were cultivated at 37° C. in a 250 mL shake flask culture containing 50 mL LB media and antibiotic selection pressure, with shaking at 230 rpm. Each culture was induced overnight at 16° C. using 1 mM IPTG.
(§2) The pellet from each induced shake flask culture was harvested via centrifugation. Each pellet was resuspended and lysed via sonication. The cell debris was separated from the supernatant via centrifugation and the cell free extract was used immediately in enzyme activity assays.
Enzyme activity assays in the reverse direction (i.e., 6-aminohexanoate to adipate semialdehyde) were performed in a buffer composed of a final concentration of 50 mM HEPES buffer (pH=7.5), 10 mM 6-aminohexanoate, 10 mM pyruvate and 100 μM pyridoxyl 5′ phosphate. Each enzyme activity assay reaction was initiated by adding cell free extract of the ω-transaminase gene product or the empty vector control to the assay buffer containing the 6-aminohexanoate and incubated at 25° C. for 24 h, with shaking at 250 rpm. The formation of L-alanine from pyruvate was quantified via RP-HPLC.
Consider “SEQ ID NO 10: Rhodobacter sphaeroides ω-transaminase, Genbank Accession No. ABA81135.1, N-terminal HIS tagged”, for which the “ω-transaminase activity for converting 6-aminohexanoate to adipate semialdehyde (formation of L-alanine from pyruvate)” value is listed as “accepted 6-aminohexanoate as substrate”.

Take B1: the “ω-transaminase activity for converting 6-aminohexanoate to adipate semialdehyde (formation of L-alanine from pyruvate)” value was “accepted 6-aminohexanoate as substrate”.

B2: the “ω-transaminase activity for converting 6-aminohexanoate to adipate semialdehyde (formation of L-alanine from pyruvate)” value is listed as “accepted 6-aminohexanoate as substrate”.

For B3, the “ω-transaminase activity for converting 6-aminohexanoate to adipate semialdehyde (formation of L-alanine from pyruvate)” value is reported as “accepted 6-aminohexanoate as substrate”.

The nature of the next series: ω-transaminase enzyme activity assay, forward direction (adipate semialdehyde to 6-aminohexanoate). Format: biochemical. To be noted: cell free extract, 10 mM adipate semialdehyde, 10 mM L-alanine, pH 7.5, 25° C., 4 h, RP-HPLC, against the empty vector control. As to the method:
as §1, §2
Enzyme activity in the forward direction (i.e., adipate semialdehyde to 6-aminohexanoate) was confirmed for the transaminases of SEQ ID NO 7, SEQ ID NO 8, SEQ ID NO 9, SEQ ID NO 10 and SEQ ID NO 12. Enzyme activity assays were performed in a buffer composed of a final concentration of 50 mM HEPES buffer (pH=7.5), 10 mM adipate semialdehyde, 10 mM L-alanine and 100 μM pyridoxyl 5′ phosphate. Each enzyme activity assay reaction was initiated by adding a cell free extract of the ω-transaminase gene product or the empty vector control to the assay buffer containing the adipate semialdehyde and incubated at 25° C. for 4 h, with shaking at 250 rpm. The formation of pyruvate was quantified via RP-HPLC.
Regarding “SEQ ID NO 10: Rhodobacter sphaeroides ω-transaminase, Genbank Accession No. ABA81135.1, N-terminal HIS tagged”, the “ω-transaminase activity for converting adipate semialdehyde to 6-aminohexanoate (formation of pyruvate from L-alanine)” value is recorded as “accepted adipate semialdehyde as substrate”.

For the molecule B4, the “ω-transaminase activity for converting adipate semialdehyde to 6-aminohexanoate (formation of pyruvate from L-alanine)” value is given as “accepted adipate semialdehyde as substrate”.

Take B1: the “ω-transaminase activity for converting adipate semialdehyde to 6-aminohexanoate (formation of pyruvate from L-alanine)” value was “accepted adipate semialdehyde as substrate”.

On to B2, for which the “ω-transaminase activity for converting adipate semialdehyde to 6-aminohexanoate (formation of pyruvate from L-alanine)” value was “accepted adipate semialdehyde as substrate”.

Regarding B3, the “ω-transaminase activity for converting adipate semialdehyde to 6-aminohexanoate (formation of pyruvate from L-alanine)” value is on record as “accepted adipate semialdehyde as substrate”.

The nature of the next series: carboxylate reductase enzyme activity assay (adipate semialdehyde to hexanedial). It counts as biochemical. To be noted: purified enzyme enhanced by the gene product of sfp, 2 mM adipate semialdehyde, pH 7.5, room temperature, 20 min, against the empty vector control. The protocol: The N-terminal His-tagged carboxylate reductase of SEQ ID NO 6 (see Example 2 and FIG. 6) was assayed using adipate semialdehyde as substrate. The enzyme activity assay was performed in triplicate in a buffer composed of a final concentration of 50 mM HEPES buffer (pH=7.5), 2 mM adipate semialdehyde, 10 mM MgCl2, 1 mM ATP and 1 mM NADPH. The enzyme activity assay reaction was initiated by adding purified carboxylate reductase and phosphopantetheine transferase or the empty vector control to the assay buffer containing the adipate semialdehyde and then incubated at room temperature for 20 min. The consumption of NADPH was monitored by absorbance at 340 nm.
Take B5: the “carboxylate reductase activity for converting adipate semialdehyde to hexanedial (consumption of NADPH, absorbance at 340 nm)” value is given as “accepted adipate semialdehyde as substrate”.

(Values after US20160152957A1, “Methods of Producing 6-Carbon Monomers From 8-Carbon Compounds” (INVISTA North America S.á.r.l., priority 2014, published 2016).)
